Data on 18 sequences can be found in the DeepSol protein solubility set.

This data set can be described thus: soluble on expression in E. coli; label from the status in PepcDB or PDB records.
Consider “MSAEAVIENRDYTLMIDKSSSMATADDPNGPTRWEIAQASTIALAKKCEEIDSDGITVYLFSGRFRRYDNVTAEKVAYIYANNEPMGRTDLAGALKDGLDNFFQRRQAGQTKPNGETFLIITDGEPTDRKAVIRLILEASQKIDRDEELAISLIQVGRDKKATAFFQALDDQLQAAGAKFDIVDTVTMEDMQGMSLSDVLLKAITDLEHHHHHH”, for which the “soluble on expression in E. coli” value is “not soluble”.

As to “MAHHHHHHMPTSSGVDQAKLREVIRVLKSVGHVGMAESLEVEWGMKPNTAAHAKNAKKGRKSLPHKSRESSKARGNSFPSLSSIAVAPSPLQVTSQSRFVVTCIGDEEDLWSPDEDPADAKRCIAPLFDYGAGLLRDHYAEYAAHPVSFVSVHPYEKQQPPSNLPWRHFELKVFYEAGKTGSEEKKEFELVKGDLIGGRYHVDAPIDAATFSRTVRCYDEQTGQPVCLKIIRNSKTFLDQGLDELRALTCVNDAGDADACCVVRLLDYFYFREHLVLVTELLFDNLYEYARKLDIVERCAYFTLARLQRIVRQVLTALKLIHSVNLIHCDIKPENIAFKSVSDCDVKVLDLGSSCYMTDTLSSYVQSRSYRAPEVILGCKYGPAVDIWSLGATAAELATGTVLFNVESVPTMLASIASVCGPIPAEMLQEGRNTSLYVTQHGAFYDYEDEQLVFHFPSEPPDAAVLFGFDDHDYVDFVRLCLTLDAALRPSAAQLLDHPFLTKTYTD”, the “soluble on expression in E. coli” value is listed as “not soluble”.

“MEFIMKTRMFEEEGWIRKKCKVCGKPFWTLDPDRETCGDPPCDEYQFIGKPGIPRKYTLDEMREKFLRFFEKHEIYPHGRVKRYPVLPRWRDDVLLVGASIMDFQPWVISGEADPPANPLVISQPSIRFTDIDNVGITGRHFTIFEMMAHHAFNYPGKPIYWMDETVELAFEFFTKELKMKPEDITFKENPWAGGGNAGPAFEVLYRGLEVATLVFMQYKKAPENAPQDQVVVIKGEKYIPMETKVVDTGYGLERLVWMSQGTPTAYDAVLGYVVEPLKKMAGIEKIDEKILMENSRLAGMFDIEDLGDLRYLREQVAKRVGITVEELEKAIRPYELIYAIADHTKALTFMLADGVVPSNVKAGYLARLLIRKSIRHLRELGLEVPLSEIVALHIKELHKTFPEFKEMEDIILEMIELEEKKYAETLRRGSDLVRREIAKLKKKGIKEIPVEKLVTFYESHGLTPEIVKEIAEKEGVKVNIPDNFYSMVAKEAERTKEEKGEELVDFELLKDLPDTRRLYYEDPFMKEFDAKVLRVIKDWVILDATAFYPEGGGQPYDTGVLIVNGREVKVTNVQKVGKVIIHKVEDPGAFKEGMIVHGKIDWKRRIQHMRHHTGTHVLMGALVRVLGRHVWQAGSQLTTDWARLDISHYKRISEEELKEIEMLANRIVMEDRKVTWEWLPRTTAEQKYGFRLYQGGVVPGREIRVVKIEDWDVQACGGTHLPSTGLVGPIKILRTERIQDGVERIIFACGE”: the “soluble on expression in E. coli” value is given as “soluble”.

For “MGSDKIHHHHHHMRKPRVFIGSSVESLPIADAIAENLEFDAEVTIWRNGTFNLSSNALDDLISKAKSVDFSIFIFSPDDLTIMKSREKYAVRDNVVFELGLFIGAIGKNRCFIVKPRDVDLHFPSDLLGITPTDFDANRSDEDLASSLNYSATQIKRAFKAQGLLELDSVQEKPRIDVNAQLATLTDTDMIALSVLLESVNSDVDGCASWDLYNRFNNYDFSSAQVNLAVIKLTRSGMIEKLNTSDFNGNEYFSYKLTEYGIDVCLSNQNRIETLIAPKKRQSGRDVPQQPPVRS”, the “soluble on expression in E. coli” value is listed as “not soluble”.

For the sequence “MLIHIGIDDTDSPNGMCTTYIGAILYREISKIAEPLDFPRLIRLNPNVPYKTRGNGAVAMSFKIDEEKIKEVKTLVIRYVRELADIDHENTNPGIVFLIGEVPKELEEFSLRALREHVTIEEAEHVARKVNAEVYKFKLGRGIIGGLAAIGYPLEKFTYELLAYRKREYWGTPRRVIKESVFYADKWSYPFTYDNVDPYKRTVLITPHGKDPVLVGIRGIDVGKILQVFEMIKIEEPIEFFQVYKTNQNTDDHLVVKKIKDVKPYDNVVIRGKVAGKYWEKGRHVFFELEDETGKIRVAAFEPTKKFRNYVRKLLPGDEVIIAGGVKEFEGVLTVNLEKFYPVNLVPKVEYEKPRCPKCGGTMKSKGDYLKCKKCGYKMEKILTPVKRPRDLKKKIYEVPPDARKHISRPLVLPGGEDKILEALLEHHHHHH”, the “soluble on expression in E. coli” value is given as “soluble”.

Take “MGSDKIHHHHHHIPNLEKSGSNFCMPFKGINVVKKCNMEYFLLNADFVNLEKTVFKKSQTLDNVCTGPENTFKTPDAGNYVVRYGERVLMTYKAGSNYRKCIGTYDVDDDLFTCVMPTDNNGFEGLEMGGFLYDPVTGEPHRDDGSVEVFCKIPHKF”: the “soluble on expression in E. coli” value is listed as “not soluble”.

For “MGSDKIHHHHHHMRKKPLTIFSDGTLTRRENTLYFESAKGRKPLAIEGIYDIYIYGHVNITSQALHYIAQKGILIHFFNHYGYYDGTFYPRETLLSGDLIIRQAEHYLNKEKRLFLAKSFVTGGTKNMERNLKNWGIKAKLSDYLDELNDARKITEIMNVEARIRQEYYAKWDENLPEEFKIVKRTRRPPKNEMNALISFLNSRLYATIITEIYNTQLAPTISYLHEPSERRFSLSLDLSEIFKPIIADRVANRLVKKGSLKKEHFREDLNGVLLTEEGMKIVTKAYNEELQKSVKHPKIGSNVTRQRLIRLEAYKLIKHLVGVEEYKPLVAWF”, the “soluble on expression in E. coli” value is reported as “not soluble”.

“MGSDKIHHHHHHMTNTETIQSLIDSGEGYNVEFKVRVPSKVRELTEEICAFANADGGYLLIGVDDNGQIIGTGLENDKRSAIQGSISEISPALHCDMYAVNIEDKTVWVIDVPSGKDKPYIFSGSIFVREGANSQKLRTVEEMRSFFQECNKIFFDAIPCSWFNIYTDADEQAIKDFRTEAKLSPSTANKQIFENLELFTDNGVAKNGTAMFFGKQPERKFPHAVTRCVLFKGTTKVYIIDDKTFGGPLYQQYLQAMAWLESKLQVAYKIEGAGPREEIWEIPLTVFKEAIINALSHRDYYEQGATITIEMFDDRVEVSNPGGLLPIVAKDFGHKSMTRNPLIFGLFTRMHLVERVASGIPRMQEAMKEANLPEPDFHTDGMFTVIFKRGISIKNDTVNDTVNDTVNDTVNSKEKEVLKIIQKYPGLNSSKIAELIKKSIPTAKRHLNSLVKSGLIEFRGAQKTGGYYIINQQ”: the “soluble on expression in E. coli” value is reported as “not soluble”.

As for “MGSDKIHHHHHHMPKTISEQNLLRLIDTLVNEGKRVIGPKAAGTMTLYEPLATGEELNLGELPRRSAKETFFPLCETILTYERDREGVRVTDVDPGAIPETVLVAARPCDVAAAPVLDSVFSWDYQDEFYLSRRGKTTIIGLACARADDACFCTAVGLSTNDTKGSDLFLTTLTGGGYRCDVITDKGMALLAAHGGLFAEGDGTPAPLAEPALGKLDLEKIKQWLDNHFEDPLWEEIAERCAGCGACAFLCPACHCFDINDEGGEKKGARRKSWDACGFGKFTNHASGHNPRDVQPQRYRNRIMHKFKYYVDKFDQRLCTGCGRCIRACPVGIDIAEILSAIGTRDQGPGTGKD”, the “soluble on expression in E. coli” value is on record as “not soluble”.

Consider “MGSSHHHHHHSSGLVPRGSHMSLNILGYDVGGTKISTVVGNDSGEILSNVRMPTVKHLGKKRLIEEMITMGDAALKKAHVEKPDLIGIIFAGPVDRNRGVVIASPNIFGLSNFNIVEPIRDYYRTDTFLENDAQAAAIAERLFGSGRNVDNFVYMTLSTGIGGGIFINGKLYRGAHGMAGEIGHNVIMVNGPTCGCGRRGCLEALAGGKAIARRVIENLRAVRDSDFFSKLRPNEITAEKVFEGKKQGDMFSQLILEETIYYLAVGLVNIINTLDPELVIIGGGISKAGKDLFDPLNDAVKEEFKSMYRPFKIVPGLENGSDLAAISVPLYTEMELHGEGEKQY”, for which the “soluble on expression in E. coli” value was “soluble”.

For the sequence “MAHHHHHHMGIVRSRLHKRKITGGKTKIHRKRMKAELGRLPANTRLGARRVSPVRARGGNFKIRALRLDTGNFAWASEAIAHRVRLLDVVYNATSNELVRTKTLVKNCIVAVDAAPFKRWYAKHYGIDLDADKKSTKAAVAAEKKGRKSAHAAADKYDVNKASPKLQREWTRRRRNHRVEKAIADQLREGRVLARITSRPGQSGRADGILLEGAELQFYLKRLEKKKK”, the “soluble on expression in E. coli” value was “soluble”.

For “MENNENHEKLNGVLRKFLGDAFTLDGKEGGLNMEKLREAIKKEKPIMNILLMGATGVGKSSLINALFGKEVAKAGVGKPITQHLEKYVDEEKGLILWDTKGIEDKDYENTLESIKKEMEDSFKTLDEKEAIDVAYLCVKETSGRVQERERESYLEHHHHHH”, the “soluble on expression in E. coli” value is on record as “not soluble”.

With “MAHHHHHHGSRFLIRLVPEDKDRAFKVPYNHQYYLQGLIYNAIKSSNPKLATYLHEVKGPKLFTYSLFMAEKREHPKGLPYFLGYKKGFFYFSTCVPEIAEALVNGLLMNPEVRLWDERFYLHEIKVLREPKKFNGSTFVTLSPIAVTVVRKGKSYDVPPMEKEFYSIIKDDLQDKYVMAYGDKPPSEFEMEVLIAKPKRFRIKPGIYQTAWHLVFRAYGNDDLLKVGYEVGFGEKNSLGFGMVKVEGNKTTKEAEEQEKITFNSREELKTGV”, the “soluble on expression in E. coli” value is listed as “soluble”.

With “GMQMNNHIRLRKAEGKWVIRTDSAVLGETLNAIELTEGSRDPVIYFPREDVAMVMFDKSEKVTACPLKGEASYYSIVGASGTLKDAAWSYESPKEGLEAIAGYLAFAPDCTKVGQY”, the “soluble on expression in E. coli” value is “soluble”.

In the case of “MGSDKIHHHHHHMRIKAVSSLVGGEVLAEPILTEKNDILIPNGTRIKPDYVPLIESLGIESVMVEDPYENYESPNSIVDPAIFDKYVKKVRRLMESHIYHDGKSLKEFEIIANDIVHDINDMPYDVIVDIKERNSDLYEHTVMVTLLSVLVARKLKLDEKRKYNIAVGCLLHDIGLRFIVTRYKNRDFSNANPAELFEYKKHTILGYSALDEENWIAPISMKMVLSHHENMAGTGFPMKQKNKELECRIIQACDAFDSLISGMECKRICVQEAINQIKENDGGRFDNKIIKCLLSSIARYPVGTTVKTNAEEEGVVVSQTVDPENPIIMIFGNENNGKLMLHNRLNLMLDKNISILQVI”, the “soluble on expression in E. coli” value is recorded as “not soluble”.

Turning to “GSYAEGQKKRRNTLHEFKKSAKTTLTKEDPLLKIKTKKVNSADECANRCIRNRGFTFTCKAFVFDKSRKRCYWYPFNSMSSGVKKGFGHEFDLYENKDYIRNCIIGKGGSYKGTVSITKSGIKCQPWNSMIPHEHSFLPSSYRGKDLQENYCRNPRGEEGGPWCFTSNPEVRYEVCDIPQCSEV”, the “soluble on expression in E. coli” value is on record as “soluble”.

In the case of “MASPHQEPKPGDLIEIFRLGYEHWALYIGDGYVIHLAPPSEYPGAGSSSVFSVLSNSAEVKRERLEDVVGGCCYRVNNSLDHEYQPRPVEVIISSAKEMVGQKMKYSIVSRNCEHFVTQLRYGKSRCKQVEKAKVEVGVATALGILVVAGCSFAIRRYQKKATALEHHHHHH”, the “soluble on expression in E. coli” value is recorded as “not soluble”.

In the case of “MTSDTFPQLPLSYWIESTQFPTFPRLSENIKTKVAIIGAGITGITTAYLLAKEGIDVVLIDSGRILNGTTGHTTAKVTAQHDLIYDELINHFGVEKARLYYESNNQALQFINKTVQTYKIDCNFSNEDSYLYTTTDNGLRNLSKEYEAYQKLNIPCDYVQSLSIPIPVQSALVMKNQAQFHPLLYLKTLLEKFVEMGGKVYEQTTAMDVEKGDYSQIITKEGHHITCEYVVSCSHFPFYDANSFFFTRMYAERSYALAIKAKTEYPGGMYLSIDDPKRSLRYITNNGEKLILIGGESHKTGQGINTMLHYEALYSFAEATFGIDEVSYRWSAQDLITLDKLPYIGHINERNPNIFVATGYRKWGMTTGTAAAHLLKDSILKVHSPYKELYAPSRFHANPDIKTFLSQNIDVAKHLIAGKIETALRKPEDLEVGEGSVVHVNGKRAGAYKDKEGKLHIVDTTCTHLGCEVEWNNGDCTWDCPCHGSRFSIEGDVLEGPADQPLKRVDNELEHHHHHH”, the “soluble on expression in E. coli” value is listed as “soluble”.
